Source: PMC4220976, “Small-angle neutron scattering reveals the assembly mode and oligomeric architecture of TET, a large, dodecameric aminopeptidase” (Acta Crystallographica Section D: Biological Crystallography, 2014)

B1: Pyrococcus horikoshii TET3 aminopeptidase (PhTET3), hydrogenated (enzyme)
chain: MDLKGGESMVDWKLMQEIIEAPGVSGYEHLGIRDIVVDVLKEVADEVKVDKLGNVIAHFKGSSPRIMVAAHMDKIGVMVNHIDKDGYLHIVPIGGVLPETLVAQRIRFFTEKGERYGVVGVLPPHLRRGQEDKGSKIDWDQIVVDVGASSKEEAEEMGFRVGTVGEFAPNFTRLNEHRFATPYLDDRICLYAMIEAARQLGDHEADIYIVGSVQEEVGLRGARVASYAINPEVGIAMDVTFAKQPHDKGKIVPELGKGPVMDVGPNINPKLRAFADEVAKKYEIPLQVEPSPRPTGTDANVMQINREGVATAVLSIPIRYMHSQVELADARDVDNTIKLAKALLEELKPMDFTP
notes: PhTET3, lysyl-aminopeptidase of the M42 family, Pyrococcus horikoshii; It was studied as a dimer (de-oligomerization buffer) and as a dodecamer; also called hPhTET3; hPhTET3 12s; source: E. coli, purified (heating at 85°C, Resource Q, Superose 6; as described by Durá et al., 2009)

Key:
[1] = target: the molecule itself; test: small-angle neutron scattering (SANS); homododecameric reference samples: dPhTET2 12s in 42% D2O and hPhTET3 12s in 100% D2O; 20 mM Tris-HCl, 150 mM NaCl pH 7.5; 20°C
[2] = target: B1; test: small-angle neutron scattering (SANS) with contrast variation; peak 1 (particle 1) heterododecamer of dPhTET2 and hPhTET3; 4.5 mg/ml; 20 mM Tris-HCl, 150 mM NaCl pH 7.5; 0, 42, 70 and 100% D2O; 20 to 80°C; mass calibrated against water; models scored with CRYSON; settings: both partners purified
[3] = target: the molecule itself; test: as above
[4] = target: the molecule itself; test: SEC; Superose 6 (native polyacrylamide gels also run) after dialysis of the dodecamers against de-oligomerization buffer: 50 mM CAPS, 20 mM NaCl, 20 mM EDTA pH 10
[5] = target: B1; test: small-angle neutron scattering (SANS) with contrast variation; peak 2 (particle 2) heterododecamer of dPhTET2 and hPhTET3; 4.5 mg/ml; 20 mM Tris-HCl, 150 mM NaCl pH 7.5; 0, 49, 70 and 100% D2O; 20 to 80°C; mass calibrated against water; models scored with CRYSON; settings: both partners purified
[6] = target: the molecule itself; test: as above
[7] = target: the molecule itself; test: small-angle neutron scattering (SANS); 1:1 mixtures of preformed homododecameric deuterated and hydrogenated PhTET2 (wild type or pentamutant) in 42% or 100% D2O; temperature raised from 20 to 80°C, 4 h at each temperature

Binder | stoichiometry N [1] | stoichiometry N [2] | stoichiometry N [3] | stoichiometry N [4] | stoichiometry N [5] | stoichiometry N [6] | stoichiometry N [7]
Pyrococcus horikoshii TET2 aminopeptidase (PhTET2), wild type (enzyme, dPhTET2: random-fractional deuteration, final level approximately 75%; hPhTET2: hydrogenated, PhTET2, leucyl-aminopeptidase of the M42 family, Pyrococcus horikoshii; It was studied as a dimer (de-oligomerization buffer) and as a dodecamer; The preparation of hPhTET2 is not described separately; also called dPhTET2; hPhTET2; source: E. coli, purified (heating at 85°C, Resource Q, Superose 6); dPhTET2 grown in minimal medium with 85% D2O) MEVRNMVDYELLKKVVEAPGVSGYEFLGIRDVVIEEIKDYVDEVKVDKLGNVIAHKKGEGPKVMIAAHMDQIGLMVTHIEKNGFLRVAPIGGVDPKTLIAQRFKVWIDKGKFIYGVGASVPPHIQKPEDRKKAPDWDQIFIDIGAESKEEAEDMGVKIGTVITWDGRLERLGKHRFVSIAFDDRIAVYTILEVAKQLKDAKADVYFVATVQEEVGLRGARTSAFGIEPDYGFAIDVTIAADIPGTPEHKQVTHLGKGTAIKIMDRSVICHPTIVRWLEELAKKHEIPYQLEILLGGGTDAGAIHLTKAGVPTGALSVPARYIHSNTEVVDERDVDATVELMTKALENIHELKI | 12 | 1 dPhTET2:hPhTET3 (6:6) | 6 | 2 | 2 dPhTET2:hPhTET3 (8:4) | – | –
B1 | 12 | – | 6 | – | – | 2 | –
PhTET2 pentamutant (R217S, R220S, F224S, H248S and I292A) (enzyme, Pyrococcus horikoshii, deuterated form: random-fractional deuteration, final level approximately 75%; a hydrogenated form was also used, PhTET2, leucyl-aminopeptidase of the M42 family, Pyrococcus horikoshii, with five mutations at the interface between the dimers; The mutant was designed in Appolaire et al. (2013) to slow the oligomerization process; Its deuterated and hydrogenated preparations are kept as one molecule; also called pentamutant PhTET2; mutated PhTET2; source: E. coli, purified (heating at 85°C, Resource Q, …)) MEVRNMVDYELLKKVVEAPGVSGYEFLGIRDVVIEEIKDYVDEVKVDKLGNVIAHKKGEGPKVMIAAHMDQIGLMVTHIEKNGFLRVAPIGGVDPKTLIAQRFKVWIDKGKFIYGVGASVPPHIQKPEDRKKAPDWDQIFIDIGAESKEEAEDMGVKIGTVITWDGRLERLGKHRFVSIAFDDRIAVYTILEVAKQLKDAKADVYFVATVQEEVGLSGASTSASGIEPDYGFAIDVTIAADIPGTPESKQVTHLGKGTAIKIMDRSVICHPTIVRWLEELAKKHEIPYQLEALLGGGTDAGAIHLTKAGVPTGALSVPARYIHSNTEVVDERDVDATVELMTKALENIHELKI | – | – | – | – | – | – | 12
